Measured values from the nanobody polyreactivity screen of Harvey et al. (2022).

assay: yeast display, Sf9 membrane polyspecificity reagent, FACS + sequencing; frameworks hold sequencing errors
Procedure, shortened: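 Polyreactivity labels are assigned by the sorting gate from which each nanobody was recovered. The gates were low and high (top ~1%), set on anti-HA fluorescence for expression and streptavidin fluorescence for reagent binding. Before sorting, galactose-induced (36–48 hours) yeast display cells were stained for 1 hour at 4 °C with 10% biotinylated, detergent-solubilized Sf9 membrane reagent.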

Sequence | polyreactivity (PSR sort gate)
QVQLVESGGCLVQAGGSLRLICAASGFIFTPYAMGWYRQAPGKERELVAAIRNSDGSTYYADSVKRRFTISRDTAKHSVYLQMNSLKPEDTAVFYCAKRYRGEPGGTYGYWGQGTQVNVSS | high polyreactivity
QVQLVESGGCLVQAGGSLRLICAASGLIFTGNAMGWYRQAPGKERELVAAINYSGGSTYYADSVKWRFTISRDNAKNTVSLQLNSLKAEDTAVYYCAAGGKSRSYYWGQGTQVTVSS | high polyreactivity
QVQLVESGGCLVQAGGSLRLRCAASGFMFGSYAMGWYRQAPGKERELVAAISRRGSSTSYADSVKGRFTISRDNAKNTVYLQMNSLKPEDTAVYFCAPPYLKKWGYYFDGNYWGQGTQVTVSS | high polyreactivity
QVQLVESGGCLVQAGGSLRLSCAASGFIFSEYAMGWYRQAPGKERELVVAIDVGGGSTYYADSVKGRFTISRDNAKNTVYLQMNSLKPEDTAVYYCAATQYGYWVPYQGFDYWGLGTQVTVSS | low polyreactivity
QVQLVESGGCLVQAGGSLRLSCAASGFIISSYVMGWYSQEPGKERELVAAITSGTSTYYADSVKGRFTFSRDNAKNTVYLQMNSLKPEDTAVYYCTADSYHTYYYWYDYWGQGTQVTVSS | low polyreactivity
QVQLVESGGCLVQAGGSLRLSCAASGFTFLDYVMGWYRPAPGKERELVAVITVSGGSTYYADSVKGRFTISRDNAKNTVYLQMTSLKPEDTAVYYCNAYTIEYPFGDSYWYNYDYWGQGTQVTVSS | high polyreactivity
QVQLVESGGCLVQAGGSLRLSCAASGFTFRWYTMGWYRQAPGKERELVAAITGSGCTTYYADSVKGRFTISRDNAKNTVYLQMNSVKPEDTAVYYCAAQYFPSRGWSKGYDYWGHGTQVTVSS | high polyreactivity
QVQLVESGGCLVQAGGSLRLSCAASGFTFYAYTMGWYRQAPGKERELVAAITKTGSRTYYADSVKGRFTISRDNAKNTVYLQMNSLKPEDTAVYYCAAASYIRVKGISRYDSWGQGTQVTVSS | high polyreactivity
QVQLVESGGCLVQAGGSLRLSCAASGLTFADNAMGWYRQAPGKERELVATISYSGGSTYYADSVKGRFTISRDNAKNTVYLQMNSLKPEDTAVYYCAADGNSTGVYLDGGEGFAYDYWGQGSQVTVSS | low polyreactivity
QVQLVESGGCLVQAGGSLRLSCAASGLTFPKYSMGWYRQAPGKERELVARISYSGASTYYADSVKGRFTISRDNEKNTVYLHMIILKPEDTAVYYCDARIYRVYYVNFAPYYYWGQGTQVTVSS | high polyreactivity
QVQLVESGGCLVQAGGSLRLSCAASGLTIAYYAMGWYRQAPGKERDLVAAITSSGTSTYYADSVKGRFTISRDNAKNTVYLQMNSLKPEDTAVYYCNKYPYFVYGDYGYWGQGTQVTVSS | high polyreactivity
QVQLVESGGCLVQAGGSLRLSCAASGRIFGLYAMGWYRQAPGKEREFVAAISSSGSDTYYADSVKGRFTISRDNAKNTVYLQINSLKPDYTAVYYCAKRRLYLCFDYNSSAYEYGYWGQGTQVTVSS | low polyreactivity
QVQLVESGGCLVQAGGSLRLSCAASGRIFGYYAMGWYRQEPWKERELVAAISYSGGTTYYADSVKGRFTISRDNAKNTVYLQMNSLKPEDTAVYYCAAESYTYYADYGYGYWGQGTQVSVSS | high polyreactivity
QVQLVESGGCLVQAGGSLRLSCAASGRIFIRYTMGWYRQAPGKERELVAAISKSGGRTYYADSVKGRFTISRDNAKNTDYLQMNSLKPEYTAVYDCNKDTDSQYSWGQGTQVTVSS | high polyreactivity
QVQLVESGGCLVQAGGSLRLSCAASGRIFNYNAMGWYRQAPGKARELVAVITSGDSTNYADSVKGRFTISRDNAKNNVYLQMNSLKPEDTAVYYCAAEYYSIRYGPHSIEVYGMDYWGQGTQVTVSS | low polyreactivity
QVQLVESGGCLVQAGGSLRLSCAASGRIFPGYAMVWYRQAPGKERELVAAISASGGSTYYADSVKGRFTISRDNAKNSVYFQIISLKPEDTAVYYCNAVYRLIRFDYWGQGSQVTVSS | high polyreactivity
QVQLVESGGCLVQAGGSLRLSCAASGRIFRRYAMGWYRQAPGKERELVASITCGGSSTSYADSVKGRFTISRDNAKNTVYLQMNSLKPEDTAVYYCAKGGVFGTYLNEYDYCGQGTQVTVSS | low polyreactivity
QVQLVESGGCLVQAGGSLRLSCAASGRNFGTYAMGWYRQATGKERELVAASTRGGTTYYADSVKGRFTISRDNAKNTVYLQMNSLTQEDTAVYYCATGPAIRYDYWGQGTQVTVSS | low polyreactivity
QVQLVESGGCLVQAGGSLRLSCAASGRTFYRYAMGWSRQAPGKERELVATISSRGTSTYYADSVKGRFTISRDNAKNTVYLQMNSLKPEDTAVYYCAVRGYAAGRHGYAYWGQGTQVTVSS | high polyreactivity
QVQLVESGGCLVQAGGSLRLSCAASGRTIRENVMGWYIQAPGKERELVAAITGNDGTTYYADSVKGRFTISRDNAKNTVNLQMNSLKPEDTAVYYCASERGDSAYRKYDYWGQGTQVTVSS | low polyreactivity
QVQLVESGGCLVQAGGSLRLSCAASGSIFDSNPKGWYRQAPGKERELVAAITGSGTSTYYADSVKGRFTISRDNAKNTVYLQMNSLKPEDTALNYCAAAPEYLTDHDYWGQGTQVTVSS | low polyreactivity
QVQLVESGGCLVQAGGSLRLSCAASGSIFGGNAMGWSRQAPGKEREFVAAITVSDGSTYYADSVKGRFTISRDNAKKTVYLQMNSLKPEDTAVYYCAAGGFYYPHYDYWGQGTQVTVSS | low polyreactivity

Sequence | polyreactivity (PSR sort gate)
QVQLVESGGCLVQAGGSLRLSCAASGSIFQPYAMGWYRQEPGKEREIVAAISQSGTSTYYADSVNGRFTISRDNAKNTVYLQMNSLKPEVTAVYYCAAQCWHLDSQWQLYNYFYWGQGTQVTVSS | high polyreactivity
QVQLVESGGCLVQAGGSLRLSCAASGSIFYWYAMGWFRQAPGKARELVAAITWSGVSTYYADSVKGRFTISRDNAKNTVDLQMNSLKREDTAVYYCAALVFGYSVFPYSYWGQGTQVTVSS | high polyreactivity
QVQLVESGGCLVQAGGSLRLSCAASGSIIWYYAMGWYRQAPGKERELVAAISTGGSTYYADSVKGRFTISRDNAKNTVYLQMNSLKPEDTAVYYCAAGAFGQILNYWGQGTQVTVSS | high polyreactivity
QVQLVESGGCLVQAGGSLRLSCAASGSTFAEYVMGWDRQAPGKERELVAAISSGTSTYYADSVKGRFTISRDNAKNTVYLQMNSLKPEDTAVYYCNADLYHNWYKPEYDYCGQGTQVTVSS | low polyreactivity
QVQLVESGGCLVQAGGSLRLSCAASGSTFGGNAMGWYRQAPGKERELVAAITIGGRTNYADSVKGRFTISRDNAKNTVYLQMNSLKPEDTAVYYCAKDRDQWQDYWGQGSQVTVSS | low polyreactivity
QVQLVESGGCLVQAGGSLRLSCAASGSTFIINAMGWYIQAPGKERVLVAANTSTGGTNYADSVKGRFTISRDNAKNTVYLQMNSLKPEATAVYYCAARYYQDGYDYWGQGTQGTVSS | high polyreactivity
QVQLVESGGCLVQAGGSLRLSCAASGSTFKIYAMGWYRQAPWKERELVAAISWRGGRTYYADSVKGRFTISRDNAKNTVYLQMNSLKPEDTAVYYCDKGTRQGLEFWGQGTQVTVSS | high polyreactivity
QVQLVESGGCLVQAGGSLRLSCAASGSTFLKYTMGWYRQAPGKERELVAAITASGGRTYYADSVKGRFTISRDNAKITVYLQMNSLKPEDTAVYYCAARGFDRYYWGQGTQVTVSS | high polyreactivity
QVQLVESGGCLVQAGGSLRLSCAASGSTFLSYAMGWYRQAPGKERELVAAISYSAGSTYYADSVKGRFTISRDNAKNTVYLQMNSLKPEDTAVYYCAAYDYSERRYDYWGQGTQVTVSS | low polyreactivity
QVQLVESGGCLVQAGGSLRLSCAASGSTFPVYSMGWYRQAPGKERELVAAISYSGGSTNYADSVKGRFTISRDNAKNTVYLQMNSLKPEDTAVYYFAADTESHHEGNYWGQGTQVTVSS | low polyreactivity
QVQLVESGGCLVQAGGSLRLSCAASGSTFSRYAMGWYRQAPGKERELVAAISWGGNTYYADSVKGRFTISRDNAKNTVYLQMNSLKPEDTAGYYCNADYSSRGANYDYWGQGTQVTVSS | high polyreactivity
QVQLVESGGCLVQAGGSLRLSCAASGSTFTIYVMGGYRQAPGKERELVAAITWSDGITYYADSVKGRFTISRDNAKNTVYLQMNSLKPEDTAVYYCRDSHPSYRPGTVRYDYWGQGTQVNVSS | low polyreactivity
QVQLVESGGCLVQAGGSLRLSCAASGSTFTYNAMGGYRQAPGKERELVAGISWRGGRTYYADSVKGRFTISRDTAKNTVYLQMNSLKPEDTAVYYCNARLWGTHYEYARMYYWGQGTQVTVSS | low polyreactivity
QVQLVESGGCLVQAGGSLRLSCAASGSTFTYNAMGWYRQAPGKERELVAAISRTANANYADSVKGRFTISRDNAKNTVYLQMNSLKPEDTAVYYCADDFLDSKVHVRFGYWGKGTQVTVSS | low polyreactivity
QVQLVESGGCLVQAGGSLRLSCAASGSTFWWNTMGWYRQAPGKERELVADIRTSGGGTYYADSVKGRFTISRDNAKNTVYLQMNSLKPEDTAVYYCNADPKWEMGSWGQGTQVTVSS | low polyreactivity
QVQLVESGGCLVQAGGSLRLSCAASGSTINSYAMGCYRQAPGKERELVAAITWIGGNTYYADSVKGRFTISRDNSKNTVYLQMTSLKPEDTAVYYCGADEYFEYYYWGQGTQVTVSS | low polyreactivity
QVQLVESGGCLVQAGGSLRLSCAASGSTLWGYAMGWYRQAPGKERELVAAITSSGGITYYADSVKGRFTISRDNAKNTVYFQMNSLKPEDTAVYFCAVDYYVVGWTYLYYYWGQGTQVTVSS | low polyreactivity
QVQLVESGGCLVQAGGSLRLSCAASGYTFLYNAMGWYRQAPGKERELVATNTRGGSTNYADSVKGRFTISRDNAKNTVYLQMYSLKPEDTAVYYCNKEAAPLGFVPSYYGRDYWGHGTQVTVSS | low polyreactivity
QVQLVESGGCLVQAGGSLRLSCAASRITFRWYAMGWYRQAPGKDRELVAAISRSGASTYYADSVKGRFTISRDNAKNTVYLQMNSLKPEDTAVYYCAKEKTTYYWATYDYWGQGTQVTVSS | high polyreactivity
QVQLVESGGCLVQAGGSLRLSCAASVRIFQIYAMGWYRQAPGKERELVATISSGTRTYYADSVKGRFTMSRDNAKNTVYLQMNSLKPEDTAVYYCAKTYATRHAYWAGTRYEDDYWGQGTQVTVSS | high polyreactivity
QVQLVESGGCLVQAGGSLRLSCAPSGLTMHYYAMGWYRQAPATERELVAAITYSCGSTYYADSVKGRFTISLDNAKNTVYLQMNILKAEDTAVYYCAADTFPTTSEVDYWGQGTQVTVSS | low polyreactivity
